Patent publication US20180171024A1 (ADICET BIO, published 2018)

Experiments:
[1] = target: T1, single-chain recombinant HLA-A2/Tyrosinase369-377 complex (human); assay: SPR, IgG captured by anti-mouse IgG, analyte scHLA-A2/Tyrosinase (EM3-TyrD)
T1 construct: also called scHLA-A2/Tyrosinase; HLA-A2/TyrD369-377
Procedure: (§1) Immobilization of IgG TCR-like antibody was performed on a GLM (General Layer Medium) chip (Bio-Rad Laboratories, Hercules, Calif., USA) at 25° C. in the vertical orientation and the continuous running buffer was PBST (10 mM Na-phosphate, 150 mM NaCl, and 0.005% Tween 20, pH 7.4). Five channels were activated with 50 μl of a mixture of 0.04 M N-ethyl-N′-(3-dimethylaminopropyl) carbodiimide (EDC) and 0.01 M sulfo-N-hydroxysuccinimide (Sulfo-NHS) at a flow rate of 30 μl/min. The anti-mouse or human IgG/NeutrAvidin was diluted in 10 mM sodium acetate buffer pH 4.5 to a final concentration of 25 μg/ml and 150 μl were injected followed by an injection of 150 μl of 1 M ethanolamine-HCl pH 8.5. The IgG TCRL antibody/purified biotinylated single-chain recombinant HLA-A2/Tyrosinase/WT1/MAGE-A4/MAGE-A9/PAP complex ligand was diluted in PBST to 5-10 μg/ml and 90 μl were injected in the vertical orientation with a flow rate of 30 μl/min. The sixth channel remained empty to serve as a reference. […] Running buffer was injected simultaneously in the sixth channel for double referencing to correct for loss of the captured antibodies from the chip sensor surface during the experiment. All binding sensorgrams were collected, processed and analyzed using the integrated ProteOn Manager (Bio-Rad Laboratories, Hercules, USA) software. […]

[2] = target: T1, single-chain recombinant …; assay: SPR (ProteOn), IgG captured via anti-mouse IgG, scHLA-A2/Tyrosinase as analyte; apparent affinity
Procedure: as §1

[3] = target: T2, HLA-A2/MAGE-A4 230-239 complex on cells (human); assay: flow cytometry, peptide-loaded T2 cells (10^-5 M)
T2 construct: whole, on cells; also called MAGE-A4 peptide; HLA-A2+/MAGE-A4+ cells

[4] = target: T3, HLA-A2/MART1(26) on T2 cells (human); assay: flow cytometry, T2 cells loaded with MART1 peptide
T3 construct: whole, on cells

[5] = target: T4, single-chain recombinant HLA-A2/WT1 126-134 complex (human); assay: SPR, B47B6 IgG captured via anti-mouse IgG, analyte scHLA-A2/WT1
T4 construct: also called scHLA-A2/WT1; MHC-WT1 peptide complex
Procedure: Purified IgGs were immobilized indirectly to the SPR sensor chip with anti-mouse. Analyte was purified recombinant single-chain HLA-A2/WT1 complexes generated by in vitro refolding of E. coli expressed scHLA-A2 complexes.
Immobilization of IgG TCR-like antibody was performed on a GLM (General Layer Medium) chip (Bio-Rad Laboratories, Hercules, Calif., USA) at 25° C. in the vertical orientation and the continuous running buffer was PBST (10 mM Na-phosphate, 150 mM NaCl, and 0.005% Tween 20, pH 7.4). Five channels were activated with 50 μl of a mixture of 0.04 M N-ethyl-N′-(3-dimethylaminopropyl) carbodiimide (EDC) and 0.01 M sulfo-N-hydroxysuccinimide (Sulfo-NHS) at a flow rate of 30 μl/min. The anti-mouse or human IgG/NeutrAvidin was diluted in 10 mM sodium acetate buffer pH 4.5 to a final concentration of 25 μg/ml and 150 μl were injected followed by an injection of 150 μl of 1 M ethanolamine-HCl pH 8.5. The IgG TCRL antibody/purified biotinylated single-chain recombinant HLA-A2/Tyrosinase/WT1/MAGE-A4/MAGE-A9/PAP complex ligand was diluted in PBST to 5-10 μg/ml and 90 μl were injected in the vertical orientation with a flow rate of 30 μl/min. The sixth channel remained empty to serve as a reference. […] All binding sensorgrams were collected, processed and analyzed using the integrated ProteOn Manager (Bio-Rad Laboratories, Hercules, USA) software. […]

[6] = target: T3, HLA-A2/MART1(26) on T2 cells; assay: flow cytometry, peptide-loaded T2 cells (10^-5 M)
[7] = target: T4, single-chain recombinant HLA-A2/WT1 …; assay: SPR (ProteOn), IgG captured via anti-mouse IgG, scHLA-A2/WT1 as analyte
Procedure: as §1

[8] = target: T2, HLA-A2/MAGE-A4 230-239 complex on cells; assay: flow cytometry, T2 cells loaded with 10^-4 M peptide
[9] = target: T5, MAGE-A4-A10; assay: alanine scan, flow cytometry, peptide-loaded T2 cells (10^-5 M), antibody 10 µg/ml
T5 construct: also called HLA-A2/MAGE-A4-A10 on T2 cells
Procedure: (§2) FIG. 55: Epitope specificity determination by Alanine scanning mutagenesis. The mutant MAGE-A4 peptides with alanine substitutions at positions 1, 2, 3, 4, 5, 6, 7, 8 and 9 were synthesized. […] The native and mutant MAGE-A4 peptides were loaded onto T2 cells APCs at a concentration of 10⁻⁵ M for 12 hrs at 37° C. […] MFI values for cells loaded with mutant and wild type peptides were compared. The relative effect of each Ala substitution was expressed as percentage of the binding to native wild-type peptide.

[10] = target: T6, MAGE-A4-A3; assay: as above
T6 construct: also called HLA-A2/MAGE-A4-A3 on T2 cells
Procedure: as §2

[11] = target: T7, MAGE-A4-A9; assay: as above
T7 construct: also called HLA-A2/MAGE-A4-A9 on T2 cells
Procedure: as §2

[12] = target: T8, MAGE-A4-A1; assay: as above
T8 construct: also called HLA-A2/MAGE-A4-A1 on T2 cells
Procedure: as §2

[13] = target: T9, MAGE-A4-A8; assay: as above
T9 construct: also called HLA-A2/MAGE-A4-A8 on T2 cells
Procedure: as §2

[14] = target: T10, single-chain recombinant HLA-A2/MAGE-A4 230-239 complex (human); assay: SPR (ProteOn); text: IgG captured via anti-mouse IgG, scHLA-A2/MAGE-A4 as analyte (FIG. 54 legend: complex on NeutrAvidin, Fab as analyte)
T10 construct: also called scHLA-A2/MAGE-A4

[15] = target: T11, HLA-A2/MAGE-A4-A7 on T2 cells (human); assay: flow cytometry (MFI), T2 cells loaded with Ala-mutated peptide
T11 construct: whole, on cells

[16] = target: T12, HLA-A2/MAGE-A4-A4 on T2 cells (human); assay: as above
T12 construct: whole, on cells

[17] = target: T13, HLA-A2/MAGE-A4-A6 on T2 cells (human); assay: as above
T13 construct: whole, on cells

[18] = target: T14, HLA-A2/MAGE-A4-A2 on T2 cells (human); assay: as above
T14 construct: whole, on cells

[19] = target: T15, HLA-A2/MAGE-A4-A5 on T2 cells (human); assay: as above
T15 construct: whole, on cells

[20] = target: T16, PAP112-A1; assay: alanine scan, flow cytometry, peptide-loaded T2 cells (10^-5 M), antibody 10 µg/ml
T16 construct: also called PAP A1; HLA-A2/PAP A1 on T2 cells

[21] = target: T17, PAP112-A9 (Homo sapiens); assay: as above
T17 construct: cell surface;cell surface complex; also called PAP A9; HLA-A2/PAP A9 on T2 cells

[22] = target: T2, HLA-A2/MAGE-A4 230-239 complex on cells; assay: flow cytometry, peptide-loaded T2 cells (10^-5 M); remark: listed apart in the source

B1: 906-11-D11 TCR-like antibody (IgG) (antibody, V domains shown)
VH: not shown
VL: DIQMTQSPSSLSASLGGKVTITCKASQDIHNYIAWYQHKPVKGPRLLIHYTSTLQPGTPSRFSGSGSGRDYSFSISNLEPEDIATYYCLQYDNLWTFGGGTKLEIKR
notes: also called Tyr D11
[1]
  Kd: 4.14 nM
[2]
  Kd: 4.1 nM
[3]
  binding result: no binding (tested: 10 µg/ml)
[4]
  binding result: no binding (tested: 10 µg/ml)

B2: B47B6 TCR-like antibody (IgG) (antibody, V domains shown)
VH: EVQLVESGGGLVKPGGSLKLSCAASGFVFSSYDMSWVRQAQEKRLEWVAYMSSGGGTYYPDTVKGRFTISRDNAKNTLHLQMSSLKSEDTAMYYCARHDEITNFDYWGQGTTLTVSS
VL: DIVLTQSPATLSVSPGDSVSLSCRASQSISNSLHWYQQKSHESPRLLIKYASQSISGIPSRFSGSGSGTDFTLSINSVETEDFGMYFCQQSYSWPLTFGAGSKLELKR
notes: also called WT1 B47B6
[5]
  Kd: 4.37 nM
[6]
  binding result: no binding (tested: 10 µg/ml)
[7]
  Kd: 4.4 nM
[8]
  binding result: no binding

B3: C106B9 TCR-like antibody (IgG) (antibody, V domains shown)
VH: QVQLQQSGGEVMKPGASVKLSCKATGYTFTGYWIEWIKQRPGHGLEWIGEILPGSGGTNYNEKFKGKATFTAHTSSNTAYMQLSSLTTEDSAIYYCARDSNSFTYWGQGTLVTVSS
VL: QIVLTQSPAIMSASPGEKVTITCSVSSSVDYIHWFQQKPGTSPKFWIYSTSILASGVPARFSGSGSGTSYSLTISRMEAEDAATYYCQQRSSYPPTFGSGTKLEIKR
notes: also called MAGE-A4 C106B9
[9]
  % of MAGE-A4 binding: 4%
[10]
  % of MAGE-A4 binding: 1%
[11]
  % of MAGE-A4 binding: 79%
[12]
  % of MAGE-A4 binding: 106%
[13]
  % of MAGE-A4 binding: 168%
[14]
  Kd: 8.8 nM
[15]
  percent decrease in binding vs wild-type peptide: 90%
[16]
  percent decrease in binding vs wild-type peptide: 90%
[17]
  percent decrease in binding vs wild-type peptide: 90%
[18]
  percent decrease in binding vs wild-type peptide: 33%
[19]
  percent decrease in binding vs wild-type peptide: 90%

B4: D10A3 TCR-like antibody (IgG) (antibody, V domains shown)
VH: EVQLQQFGTELVKPGASVKISCKASGYTFTDYNMDWVKQSHGKSLEWIGDINPNYDTTTYNQKFKGKATLTVDKSSSTAYMELRSLTSEDTAVFYCARRNYGNYVGFDFWGQGTTLTVSS
VL: NIVLTQTPKFLLVSAGDRVSITCKASQRVNNDVAWYQQKPGQSPKLLIYYASNRYTGVPDRFTGSGYGTDFTFTISTVQAEDLAVYFCQQDYSSPFTFGSGTKLEIKR
notes: also called PAP D10A3
[20]
  % of PAP112 binding: 83%
[21]
  % of PAP112 binding: 1%
[22]
  binding result: no binding (tested: 10 µg/ml)

B5: 905-2-D7 TCR-like antibody (IgG) (antibody, V domains shown)
VH: QVQLKESGPGLVAPSQSLSITCTVSGFSLTSYGVHWVRQPPGKGLEWLGVIWAGGTTNYNSALMSRLSISRDNSKSQVFLEMNSLQTDDTAIYYCARDGHFHFDFWGQGTTLTVSS
VL: DIQMTQSPASLSVSVGETVTITCRASDIIYSNLAWYQQKQGKSPQLLVYAATNLAAGVPSRFSGSGSGTQYSLKINSLQSEDFGTYYCQHFWGSSISFGSGTKLEIKR
notes: also called Tyr D7
[3]
  binding result: no binding (tested: 10 µg/ml)
[4]
  binding result: no binding (tested: 10 µg/ml)
